Assay results reported in the supplement of paper PMC9170038.

Test system: K4 kissing-loop RNA reporter
Experiment: apparent KD of K4 kissing-loop reporter; higher = weaker reporter binding
Details: Eterna round: R107
Method: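 RNA-MaP round R107: designed RNA switches with theophylline, tryptophan, arginine or FMN aptamers are transcribed on-chip within common flanks. They are titrated with a labelled K4 kissing-loop RNA reporter in RNA-MaP buffer (100 mM Tris pH 7.5, 80 mM KCl, 4 mM MgCl2), without ligand or with the indicated ligand. Median apparent KD per design.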

[1] = input ligand: theophylline 20 uM
[2] = input ligand: tryptophan 2.4 mM
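Note: bound reporter read as fluorescence of individual clusters on recovered sequencing chips by microscopy, with normalized cluster intensities fitted with a binding model.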

| Sequence | apparent KD of K4 kissing-loop reporter (input ligand: FMN 200 uM) | apparent KD of K4 kissing-loop reporter (input ligand: arginine 13.2 mM) | apparent KD of K4 kissing-loop reporter (input ligand: none) | apparent KD of K4 kissing-loop reporter [1] | apparent KD of K4 kissing-loop reporter [2] |
| --- | --- | --- | --- | --- | --- |
| UUUAUAUAGUCGGCCGCCACUGAUUUUUUUAUAUGUUUAUGUUUAUACGAGUGAUGUUCGAUAUACAGGACCGGGACUUUGGUUA [JR_SSTryptoB_Sub019] | 145 nM | 207 nM | 159 nM | 224 nM | 115 nM |
| UGACUGGAUGGAAGGAGCGCUAAACUCCUAGUGAUGUUAGGGACAUGAGGCAAAGCCUUGAAGCAGGUAGGUCGCCAUCUAGUCU [FiskerMod 27 - Jieux - Same State - Arginine B] | 233 nM | 133 nM | 208 nM | 176 nM | 167 nM |
| AAUUUACAAUAAUCAUUUAAAGGAUCAGAAGGAGCGUGUUAUAACACAGGUAGGUCGCUGAGCGAGUGAUGUUCGCUAUAUACAA [JR_ExcArginiA_Sub002] | 76.3 nM | 97.7 nM | 90.8 nM | 99.8 nM | 64.5 nM |
| CGCAUACCUGCGCUAGUAGUGAUGUUACAGCGAGGACCGGUACGGCCGCCACUCGUGACGGUCGCAAAACGCGUUGCAGAACACU [theeternabot_exclusion_KL_Trp_A_32] | 342 nM | 183 nM | 247 nM | 253 nM | 322 nM |
| GCGCGUCAUGUCAGCGGUGACACUGUCGAUACCAGUGCCGUAAGGCGCCCUUGGCAGCGACGUGCUGGAGUGAUGUUCCAGCGUU [#2 Exclusion - Theophylline A Attempt #31 (HarryS)] | 143 nM | 132 nM | 153 nM | 154 nM | 146 nM |
| AGCUUGGGUUCGGCCGCCACUCCACCCUUAGAAGUGAUGUUUCUCAUGCAUACGCGUCGUCAGAUGAGGACCGGGAAUGUAGUUG [theeternabot_exclusion_KL_Trp_B_24] | 209 nM | 444 nM | 354 nM | 351 nM | 214 nM |
| AAUGCAUAGUGAAGGAGCGCGAUAAGCAGUGAUGUUGCUUAGCUAUUAUUCAUUUUUUUAACGCAGGUAGGUCGCACUUUGCAUA [JR_ExcArginiB_Sub016] | 166 nM | 142 nM | 135 nM | 148 nM | 144 nM |
| UGAUCAACAUCUGAUACCAGUCGCUCGAGUAAUCAACCGUGGCUAGUGAUGUUGGCUUUUGACCCUUGGCAGCAGAAUCGUGUCA [theeternabot_sameState_KL_Theo_B_20] | 134 nM | 131 nM | 112 nM | 189 nM | 120 nM |
| AAGAGCUAGGCGGCCGCCACUAGAUGUGAACACAUACAAACCAGUGAUGUUGGUAUGAUGGACAGUAGGACCGGGCCUAGCUGAA [Exclusion - Tryptophan B (Freestyle 10)] | 998 nM | 585 nM | 1010 nM | 1350 nM | 995 nM |
| CUCGUGGGUUUGAGAGGGCUUGUGGGAAGUGAGGAUAUUUAGGGAGGGAGAAGGUACUAUAGAAUAUAGUGAUGUUAUAUAUGGG [SSFMNA.U] | 264 nM | 138 nM | 185 nM | 111 nM | 147 nM |
| UUUUGCUAGCGAAACGCUAGCUUAACAGAUACCAGUCGCGAAAGCGACCCUUGGCAGCUGCUGAGUGAUGUUCAGGUGAGAGUUA | 387 nM | 221 nM | 344 nM | 301 nM | 312 nM |
| UAAGAUAUGAGGGAUACCAGCCAUAAGGAAAGUGUGAUGAGUGAUGUUCUGACAAGCCAAGGCCCUUGGCAGCUUUAAUAGCAUC [whbob_SS_Theo_B_th76] | 271 nM | 80.8 nM | 164 nM | 218 nM | 203 nM |
| AACCUUGUAGUGAUGUUGCAAGGCGCUGAUACCAGUCACAGCCACGACCCUUGGCAGCAGUGGCGUUCAUGAUAAAAUAGAUUAA [theeternabot_sameState_KL_Theo_A_49] | 42 nM | 41.5 nM | 41.4 nM | 37 nM | 39.9 nM |
| UAUAUAGUGACGGCCGCCACUAUAUUAAUGUUUAGGUUAGAGUGAUGUUUUGAUUAAUAUUUUUAUAGGACCGGGUUAUAUGUUA [xerrmullin] | 563 nM | 314 nM | 511 nM | 739 nM | 428 nM |
| UGUGUUUACCUGACUCAGUGAUGUUGAGAAGGAGCGUGCUAAUGCACAGGUAGGUCGCUCAACCUAAAUUCAGGUGAGCACUAAA | 587 nM | 250 nM | 560 nM | 271 nM | 478 nM |
| GUGUGUGAAAACACGCACUUAUAUCCUAGGCAGGAUAUGCGGAAACGCAGAAGGGCCACCGGCGAGAAAAUCCAGUGAUGUUGGA [Ex FMN A 6] | 281 nM | 245 nM | 273 nM | 192 nM | 251 nM |
| UCCACGCUUAGAGGAUAUCGGAUUAGAGUGAUGUUCUAAAGACGCCCAGUGAUGUUGGAUGGUAUACGAGAAGGCUGUGGCGUGU [Same State FMN B GF5] | 219 nM | 539 nM | 551 nM | 622 nM | 410 nM |
| UCUCCAGUGAUGUUGGAGACGGAUGAGGAAGGAGCGGGCACGUGCCCAGGUAGGUCGCCUCGAAAGCCCUGUAGCAUCGCGAAAC [Disoribe] | 281 nM | 188 nM | 203 nM | 193 nM | 149 nM |
| AAGUGAUGUUGUAGUGAUGUUGUGAUGUUGCAGGAUAUAUAGUGAUGUAGAAGGGUAAGUACUGUUUUUUUUUUUGAGUGAUGUU [ookooyzrmullin] | 101 nM | 41.7 nM | 78.4 nM | 67.5 nM | 88.7 nM |
| UGGGAUGUUAAAGGAUAUAGCAGAUGAUACAAGAAAGUGAGUGAUGUUUAUGUAGAUGAUGAUAUGUUAGAAGGUUAACAAAACG [abcdefghijk] | 625 nM | 595 nM | 754 nM | 715 nM | 544 nM |
| GUAUACAUAGAUCACCUUGUAGUGAUGUUGCGAGGACCGGUACGGCCGCCACUCGAAGUACGAAAGUACAAAGAUCUAUGUAUAC [Exclusion Trypto A - 1] | 251 nM | 131 nM | 258 nM | 136 nM | 45.9 nM |
| AGUCCACUCUAAAGAGUGGACCUAAGGGAUACCAGUGAUGUUGGUCACCCUUGGCAGCCCACUGUCAUCGAUAAAGAUGGCAGCA | 119 nM | 106 nM | 113 nM | 117 nM | 117 nM |

| Sequence | apparent KD of K4 kissing-loop reporter (input ligand: FMN 200 uM) | apparent KD of K4 kissing-loop reporter (input ligand: arginine 13.2 mM) | apparent KD of K4 kissing-loop reporter (input ligand: none) | apparent KD of K4 kissing-loop reporter [1] | apparent KD of K4 kissing-loop reporter [2] |
| --- | --- | --- | --- | --- | --- |
| UUAGGAGUGGAAGGAUAUCCUGGUGUGGGUGGUGUUAGUGAUGUUGGUGGUGCAGUGAUGUUGCGCGGAGAAGGUCCGGUGUUGA [BDazzled - #4 - Exc. FMN B] | 471 nM | 384 nM | 434 nM | 554 nM | 358 nM |
| AUCGUUGUCUGAGGAUAUCGGUUAUCUGUAGUGAUGUUACAGUAUAUUGAUAUUAAAGUUUCUAUUCGAGAAGGCAGACUACGUA [JR_Nu_ExcFMNB_Sub022] | 71.4 nM | 65.4 nM | 72.1 nM | 58.9 nM | 71.9 nM |
| GUCAAGGGUGCGGCCGCCACUUCUAGUGAUGUUAGUUUGUCUUCGUUCAACCGGCGUCUGCACGCAAGGACCGGGCACCAGCGAC [theeternabot_exclusion_KL_Trp_B_10] | 552 nM | 350 nM | 567 nM | 636 nM | 360 nM |
| GGGAGUAGUGCGGCCGCCACUGUGAAAGUAGAAGAAUAUAGUGAUGUUAUAUAGGAACAAAAGAAUAGGACCGGGCAUUAGAUUU [SSTRyptB.X] | 311 nM | 260 nM | 304 nM | 299 nM | 198 nM |
| AGUAUGUAAUAUGGCAUAUUUAGAACUGAAGGAGCGCCGAAUAAGGCAGGUAGGUCGCGGAAUCAUGAGUGAUGUUCAUGACUAU [KL-SSArg-A26] | 80.6 nM | 116 nM | 123 nM | 126 nM | 91.1 nM |
| UGUAUGUGAUUUGAUACCAGACCAGCUGGUGGAUCACGAGUGAUGUUCGUGUUGGUUUGGGUCCCUUGGCAGCAAAUCGCAUACU [KL-SSTheoB13] | 218 nM | 151 nM | 180 nM | 131 nM | 166 nM |
| AAGGGCGGGACUUUCUCGCCGGAUAGAGAUACCAGCCCAGCAAUGGGCCCUUGGCAGCUCACUGACCUCAGUGAUGUUGAGGUUC [Quintege] | 310 nM | 214 nM | 213 nM | 208 nM | 185 nM |
| UGUGUUUACCUGACUCAGUGAUGUUGAGAAGGAGCGUGAGAAGGCACAGGUAGGUCGCUCAACCUAAAUUCAGGUGAGCACUAAA | 134 nM | 188 nM | 173 nM | 193 nM | 142 nM |
| AGAUAGGGCUGAAGGAGCGUCGGAGAAGAGAAGAAGGAAUCCAGUGAUGUUGGAUAGAUCCGACAGGUAGGUCGCAGUUUUAUGA [hbob_SS_Arginine_B_2t139] | 125 nM | 127 nM | 133 nM | 178 nM | 124 nM |
| UGAUAGGACAGAAGGAGCGGAAGUGAUGUUUCCAAAUGGAAUAAGGUGUCAAAGACACCCUUCCAGGUAGGUCGCUGUCCUAUCU [ArgBX 15 #Palindromic #SwitchBubble #StaticStem] | 147 nM | 175 nM | 140 nM | 161 nM | 128 nM |
| AGUGUGCAAAAGCACACUCAGUACAAGGACAAGGAUAUCUACUAAUAGAGAAGGUGUCCUUUCCUUAGUGAUGUUAAGGAGCUGA [Omei KL FMN A SS D v2] | 177 nM | 295 nM | 339 nM | 347 nM | 368 nM |
| UUUCGUUUCGUCUGACAUAAUUGGCUAGAAGGAGCGGUAAAAUUACCAGGUAGGUCGCUAGCCCAGUGAUGUUGGGACUAGCGUA [Edries] | 124 nM | 107 nM | 114 nM | 116 nM | 125 nM |
| AUGGUAUUGCGAGGAUAUCCUUCAAACGUGACACUAACGGCAGUGAUGUUGCCGGCGUCGAUCAGAGGAGAAGGCGCGGUGUUAU [Exclusion FMN B GF 23] | 118 nM | 117 nM | 122 nM | 125 nM | 119 nM |
| AGGAUGUAGUGAUGUUAUAUAAGAAGUAAACGAGGACCGGUACGGCCGCCACUCGAAGCGGCUACUAGCGCGUUGCGAGGUGCGC [ExTryptoA.Cc] | 391 nM | 451 nM | 372 nM | 370 nM | 286 nM |
| UUGCGGAGUGAUGUUUCGGGAUAUCGGGAAGGAGCGCCGAUAACGGCAGGUAGGUCGCCCGGUCCAGUGAUGUUGGGCAUGCAUU [Exclusion Arg A GF 23] | 200 nM | 136 nM | 212 nM | 201 nM | 171 nM |
| CUAUAGACCCUUCGGAUAGUGAUGUUGUCACGAGGACCGGUACGGCCGCCACUCGCUGCCACCAUACCGCUUCACGGAACGAGCA [theeternabot_exclusion_KL_Trp_A_7] | 483 nM | 429 nM | 503 nM | 599 nM | 169 nM |
| UGGACCUGACUCGAUAAGAGUCAAUGAGAUACCAGUGACGAAAGUCACCCUUGGCAGCUCCUGCCAGUGAUGUUGGUAAGGUCCU [#SwitchBubble 4 #StaticStem] | 416 nM | 252 nM | 437 nM | 575 nM | 299 nM |
| AGAUGGAAUAGAAGGAGCGGCGCCAGUGAUGUUGGAUGCCGCGGGUGAAUCAUGUCAUAGUGCCAGGUAGGUCGCUAUUUCAGCU [Beinveve] | 104 nM | 98.1 nM | 96.6 nM | 103 nM | 90.8 nM |
| AAGCAGUCUCUCGAAGCCAUCGAAGAUGGGCGAGGACCGGUACGGCCGCCACUCGGAGUGAUGUUCCGAAGACUGCAAAAUAAAA [MatMod 10 - Jieux - Exclusion - Tryptophan A] | 281 nM | 223 nM | 396 nM | 243 nM | 308 nM |
| GACCCAGAAGCACACCUAAAGUUGACAGAUACCAGCGUCGUUUGGCGCCCUUGGCAGCUGGUCAGUGAUGUUGAUAGCUUCGACU [theeternabot_sameState_KL_Theo_A_24] | 197 nM | 69.5 nM | 181 nM | 89.5 nM | 93.6 nM |
| AAAAUAAACCAGUGAUGUUGGUGUCCGGAUACCAGCGAUAAUCAUCGCCCUUGGCAGCCGCGGACGUACAAAAUAAGUACGUCCU [MatMod 13 - Jieux - Same State - Theophylline A] | 457 nM | 271 nM | 346 nM | 310 nM | 256 nM |
